In PMC9712175:

Target: extracellular domain (ECD) of human insulin-like growth factor-1 receptor (hIGF-1R) (human) (UniProt P08069)
Assay: other fluorescence titration

Sequence of UniProt P08069 (P08069 741-935): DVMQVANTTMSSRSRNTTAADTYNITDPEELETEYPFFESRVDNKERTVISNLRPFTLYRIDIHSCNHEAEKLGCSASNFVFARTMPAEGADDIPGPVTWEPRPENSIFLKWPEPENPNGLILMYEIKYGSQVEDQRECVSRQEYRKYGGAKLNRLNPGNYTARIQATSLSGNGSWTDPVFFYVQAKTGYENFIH

full-length human insulin-like growth factor 1 (hIGF1) (from UniProt P05019 22-118) (ligand)
Kd: 90 nM
